The values below come from article PMC7039703.

Test [1] has as its target His-tagged FcγRIIB (human) (UniProt P31994). The experiment in a line: ELISA. (In general: An ELISA detects its analyte on a solid surface through an enzyme-linked reagent.)
Test [2] addresses His-tagged FcγRIIaR (human) (UniProt P12318). The experiment in a line: ELISA.
Test [3] deals with His-tagged FcγRI (human) (UniProt P12314). The experiment in a line: ELISA.
Test [4] addresses FcγRIIIaV (human) (UniProt P08637). The experiment in a line: BLI. On the technique in general: Biolayer interferometry detects binding as a change in optical thickness at a sensor tip.
Sequence of UniProt P08637 (P08637 17-208): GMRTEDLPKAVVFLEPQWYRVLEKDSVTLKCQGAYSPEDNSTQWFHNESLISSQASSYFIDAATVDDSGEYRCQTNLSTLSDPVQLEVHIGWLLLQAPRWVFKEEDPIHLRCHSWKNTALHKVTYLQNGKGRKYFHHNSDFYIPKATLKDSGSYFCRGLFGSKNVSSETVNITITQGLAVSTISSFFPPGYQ

Sequence of UniProt P31994 (P31994 43-217): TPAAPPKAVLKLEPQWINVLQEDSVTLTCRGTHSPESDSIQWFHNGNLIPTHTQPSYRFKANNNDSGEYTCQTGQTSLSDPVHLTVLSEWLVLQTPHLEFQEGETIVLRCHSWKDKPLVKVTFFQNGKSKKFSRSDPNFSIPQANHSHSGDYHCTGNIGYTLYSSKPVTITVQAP
Sequence of UniProt P12314 (P12314 16-292): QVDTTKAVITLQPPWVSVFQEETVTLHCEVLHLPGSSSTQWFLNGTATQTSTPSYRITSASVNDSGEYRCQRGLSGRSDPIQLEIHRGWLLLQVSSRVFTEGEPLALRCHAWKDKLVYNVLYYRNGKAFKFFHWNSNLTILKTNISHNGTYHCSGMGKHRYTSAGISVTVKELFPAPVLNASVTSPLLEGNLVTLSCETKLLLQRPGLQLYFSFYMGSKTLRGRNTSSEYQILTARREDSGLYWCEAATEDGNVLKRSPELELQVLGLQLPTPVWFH
Sequence of UniProt P12318 (P12318 34-217): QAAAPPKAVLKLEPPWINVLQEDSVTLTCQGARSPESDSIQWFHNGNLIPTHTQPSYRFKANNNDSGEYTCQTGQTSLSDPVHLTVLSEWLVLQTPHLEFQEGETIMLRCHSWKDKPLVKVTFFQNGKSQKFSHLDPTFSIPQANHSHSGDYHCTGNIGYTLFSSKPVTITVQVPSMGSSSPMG

Take “monoclonal anti-CD20 antibody GA101 produced in 293SGlycoDelete cells”: the fold reduction of binding competition against 293S anti-CD20 in test [1], in test [2] and in test [3] was > 10 fold each time. The fold lower binding affinity against 293S anti-CD20 in test [4] worked out at 5.8 fold.
